Source: patent US11833164B2, “Methods of treating Fabry disease in patients having a mutation in the GLA gene” (Amicus Therapeutics, Inc., priority 2019, dated 2023)
Residue numbers refer to the chain shown, from its start. Names and notes keep the numbering of the source.

B1: L177V (protein)
chain: MQLRNPELHLGCALALRFLALVSWDIPGARALDNGLARTPTMGWLHWERFMCNLDCQEEPDSCISEKLFMEMAELMVSEGWKDAGYEYLCIDDCWMAPQRDSEGRLQADPQRFPHGIRQLANYVHSKGLKLGIYADVGNKTCAGFPGSFGYYDIDAQTFADWGVDLLKFDGCYCDSVENLADGYKHMSLALNRTGRSIVYSCEWPLYMWPFQKPNYTEIRQYCNHWRNFADIDDSWKSIKSILDWTSFNQERIVDVAGPGGWNDPDMLVIGNFGLSWNQQVTQMALWAIMAAPLFMSNDLRHISPQAKALLQDKDVIAINQDPLGKQGYQLRQGDNFEVWERPLSGLAWAVAMINRQEIGGPRSYTIAVASLGKGVACNPACFITQLLPVKRKLGFYEWTSRLRSHINPTGTVLLQLENTMQMSLKDLL
B2: Y184H (protein)
chain: B1 chain with V177L, Y184H
B3: D182V (protein)
chain: B1 chain with V177L, D182V
B4: E178Q (protein)
chain: B1 chain with V177L, E178Q
B5: D182E (protein)
chain: B1 chain with V177L, D182E
B6: A181P (protein)
chain: B1 chain with V177L, A181P
B7: A181V (protein)
chain: B1 chain with V177L, A181V
B8: A181T (protein)
chain: B1 chain with V177L, A181T
B9: Y184S (protein)
chain: B1 chain with V177L, Y184S
B10: E178K (protein)
chain: B1 chain with V177L, E178K
B11: L180S (protein)
chain: B1 chain with V177L, L180S
B12: L180M (protein)
chain: B1 chain with V177L, L180M
B13: D182Y (protein)
chain: B1 chain with V177L, D182Y
B14: E178A (protein)
chain: B1 chain with V177L, E178A
B15: E178G (protein)
chain: B1 chain with V177L, E178G
B16: L177W (protein)
chain: B1 chain with V177W
B17: D182A (protein)
chain: B1 chain with V177L, D182A
B18: Y184F (protein)
chain: B1 chain with V177L, Y184F

Tested on: mutant form of α-Gal A expressed in HEK-293 cells
Assay: HEK assay (GLP HEK / Migalastat Amenability Assay): α-Gal A activity in lysates of transiently transfected HEK-293 cells incubated with or without 10 μM migalastat
Type: cell-based, human
Conditions: for Absolute increase (% WT): 10 μM migalastat versus baseline; for Relative increase: 10 μM migalastat α-Gal A activity relative to baseline; for 10 μM migalastat α-Gal A activity (% WT): 5 days; for 10 μM migalastat α-Gal A activity (% WT) / Baseline α-Gal A activity (% WT): percentage of baseline wild-type α-Gal A activity; for 10 μM migalastat α-Gal A activity (% WT) / Baseline α-Gal A activity (% WT) / Baseline α-Gal A activity / 10 μM migalastat α-Gal A activity: mean ± SEM; for Baseline α-Gal A activity (% WT): absence of migalastat; for Baseline α-Gal A activity / 10 μM migalastat α-Gal A activity: lysates of HEK-293 cells transfected with the mutant form; for Baseline α-Gal A activity: incubated 5 days in the absence of migalastat; for 10 μM migalastat α-Gal A activity: incubated 5 days with 10 μM migalastat
How it was run: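 HEK-293 cells transiently transfected with mutant α-Gal A and incubated with or without 10 μM migalastat; lysate activity given as nmol free 4-MU released per mg protein per hour. Values are mean±SEM.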

Molecule	Absolute increase (% WT)	Relative increase	10 μM migalastat α-Gal A activity (% WT)	Baseline α-Gal A activity (% WT)	Baseline α-Gal A activity [nmol/mg/h]	10 μM migalastat α-Gal A activity [nmol/mg/h]
B1	22.9	1.3	91.8 ± 2.8	68.9 ± 3.2	23616 ± 1282	31347 ± 1132
B2	18.4	1.6	48.6 ± 3.5	30.2 ± 2.9	10980 ± 867	17894 ± 1145
B3	44.7	1.6	124.8 ± 6.9	80.2 ± 4.2	26881 ± 2166	42107 ± 3524
B4	18.3	1.3	86.4 ± 5	68.1 ± 4.5	23272 ± 1501	29671 ± 1733
B5	32.3	1.4	117.1 ± 4.5	84.8 ± 4	28082 ± 2023	38956 ± 2806
B6	29.8	1.9	61.5 ± 3.3	31.7 ± 2	10948 ± 725	21274 ± 1279
B7	14.2	1.2	93.2 ± 5.3	79.1 ± 3.5	26667 ± 1945	32358 ± 2863
B8	19.2	1.4	71.3 ± 4.6	52.1 ± 2.7	17946 ± 1002	24490 ± 1576
B9	25.2	2.7	40.6 ± 1.6	15.4 ± 1	5213 ± 371	13965 ± 799
B10	16.4	1.2	90.9 ± 4.8	74.5 ± 3.4	25584 ± 1225	31222 ± 1660
B11	35.5	3.3	50.9 ± 2.3	15.4 ± 1.5	5625 ± 604	18335 ± 964
B12	29.5	1.3	122.9 ± 5.5	93.4 ± 6.6	35987 ± 2266	47587 ± 2132
B13	31.9	1.4	116.5 ± 6.4	84.7 ± 4.1	28377 ± 2226	39247 ± 3250
B14	14.5	1.2	84.8 ± 6.8	70.3 ± 4.9	23910 ± 1511	29125 ± 2326
B15	18.6	1.5	61.7 ± 6.4	43.1 ± 4.7	17470 ± 2323	26566 ± 4263
B16	37.6	1.7	88.2 ± 2	50.5 ± 2.6	17321 ± 1025	30075 ± 867
B17	31.8	1.3	133.3 ± 8.2	101.5 ± 5.7	33673 ± 2886	44436 ± 3828
B18	31.8	1.4	109.7 ± 5.8	77.9 ± 4.4	26088 ± 1334	36815 ± 2009
